Reference: the supplement of paper PMC9170038

Columns and labels:
MS2 coat protein [1] = test: apparent KD of MS2 coat protein, switch ON state; designed switch direction (-1 OFF switch, 1 ON switch): -1; higher = weaker reporter binding; conditions: FMN input: 0 or 200 uM; Eterna round: R93 (includes R88 designs)
In short: (§1)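 Apparent KD is reported per design as the median of normalised binding-curve fits across its clusters. The RNA switches were made by on-chip transcription from Illumina sequencing clusters. SNAP-549-labelled MS2 coat protein was then added in twofold steps (0.7 or 1.5 nM to 3 µM; 0.8–1.5 h to 10–20 min per step) in 100 mM Tris-HCl pH 7.5, 80 mM KCl, 4 mM MgCl2, without or with constant ligand.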

MS2 coat protein [2] = test: apparent KD of MS2 coat protein, switch OFF state (with FMN for OFF switches, without FMN for ON switches); designed switch direction (-1 OFF switch, 1 ON switch): -1; higher = weaker reporter binding; conditions: FMN input: 0 or 200 uM; Eterna round: R93 (includes R88 designs)
In short: as §1

| Sequence | apparent KD of MS2 coat protein (MS2 coat protein [1]) [nM] | apparent KD of MS2 coat protein (MS2 coat protein [2]) [nM] |
| --- | --- | --- |
| AAGAAGCGAGGAUAUACAAAAUAAAAGAAAAGAAAGAAAGAACAUGAGGAUCACCCAUGUAGAAGGCGUAAGAA [Sankhenre Sewadjtu] | 13.3 | 11.1 |
| AAGAAGUCAGGAUAUACAUGAGGAUCACCCAUGUAAAAGAAAGAGGGAAAAGAGAAAAGUAGAAGGGACAAGAA [Arsinoe I] | 29.1 | 32.1 |
| AAGAAGUCAGGAUAUGCCAGAGAUCAAGAAAGUGACGAGUAGCAGAAGGGACAUGAGGAUCACCCAUGUAAAGA [Opal 8] | 45.9 | 36.9 |
| AAGAAGUCAGGAUAUGCUGCUCGUCACAAAAGUGAUGAGUAGCAGAAGGGACAUGAGGAUCACCCAUGUAAAGA [JL eternac mod 0] | 52 | 67.5 |
| AAGAAGUCAGGAUAUGCUUGUCGUCACAAAAGUGAUGACGAGCAGAAGGGACAUGAGGAUCACCCAUGUAAAGA [JL eternac mod 1] | 42.1 | 41.9 |
| AAGAAGUGAGGAUAUCCAAAAGAAAAGAAAAGAAAAGAAAAGGAGAAGGCACAUGAGGAUCACCCAUGUAAGAA [Ankhkaenre Psamtik III] | 26.3 | 28.4 |
| AAGAAUGAAGGAUAUACAUGAGGAUCACCCAUGUAAAAGAAAGAGGGAAAAGAGAAAAGUAGAAGGUCAAAGAA [Ptolemy XI Alexander II] | 19.8 | 20.4 |
| AAGACUAGAGGAUAUACAUGAGGAUCACCCAUGUAACUGUCAGGAAACUGACGGAGAUGUAGAAGGCUAGUCAA [Mat - Exclusion 3 - Neo mod - D75] | 16.7 | 38.4 |
| AAGAGUAGAGGAUAUACAUGAGGAUCACCCAUGUAAUCCAGAUAAGGAAGCAUGUCGUGUAGAAGGCUGCAUGA [MOD 2 of Nando (MS2 Riboswitches- Exclusion 3)] | 15.9 | 14.4 |
| AAGAUGUGAGGAUAUGCUUGUCGUCACAAAAGUGAUGACGAGCAGAAGGCACAUGAGGAUCACCCAUGUAAAGA [Opal 26] | 90.1 | 147 |
| AAGGGACAUGAGGAUCACCCAUGUGAGGAUAUGACGUAAAGAAAGAAAGAAGAAAUCGUCAGAAGGCACACCAA [Mat - Exclusion 1 - Eli mod - D70] | 70.6 | 118 |
| AAGGUACGAGGAUAUACAUAGAUACAGACACAUGUACAUGUACAUGAGGAUCACCCAUGUAGAAGGCGUAUAUG [Mat - Same state - Mayanna Mod - D109] | 67.5 | 73.9 |
| AAGUACGAAGGAUAUACAUGGAUAUACAUUCAUGUGGACCUACAUGAGGAUCACCCAUGUAGAAGGUCGUAAUA [Mat - Same state - Mayanna Mod - D145] | 24.6 | 12.8 |
| AAGUGGGCAGGAUAUACAUGAGGAUCACCCAUGUAAAGAAAAGAAAGAUCCGAAGAAAGUAGAAGGGCCUGCAA [Mod 1 of Ex3 sub 3, by Tesla's Dusciple Round 1] | 144 | 137 |
| AAUAACAGAGGAUAUGCGAAAAUAAGCGGAAACGCAAAGGGACAUGAGGAUCACCCAUGUAGAAGGCUGGAUAA [Tetraloop... 61% 1] | 34.4 | 29.5 |
| AAUAACCGAGGAUAUACAAAACUUGUGAUCUAGUGGAUUUUACAUGAGGAUCACCCAUGUAGAAGGCGGAAAAG [Veenquge] | 61.3 | 212 |
| AAUAACCGAGGAUAUACAUGAGGAUCACCCAUGUGAACAUCCACGAAAAGGAUUCUGUGUAGAAGGCGGAAACC [Soquar] | 15.3 | 13.4 |
| AAUAAGAGAGGAUAUACAUAAUAAAAGAAAAGAAACAAAGAACAUGAGGAUCACCCAUGUAGAAGGCUCAAUAA [Sonbef] | 21.9 | 18.9 |
| AAUAAGUCAGGAUAUGCAAAUAAUAAAUAAAAUAAAAUAAAGCAGAAGGGACAUGAGGAUCACCCAUGUAAAUA [Opal 40] | 47.9 | 41 |
| AAUACACAUGAGGAUCACCCAUGUAAGGAUAUCGAAAAAAAACUAAACAAAAAACAAACGAGAAGGUACAAAAA [Exclusion 1 design 4] | 30.4 | 23.9 |
| AAUAUCGGAGGAUAUGCAUAGAUAAAGAACCAUGUUAAAACACAUGAGGAUCACCCAUGUAGAAGGCCGAUAAA [AJ 9] | 54.1 | 77.5 |
| AAUAUGUAAGGAUAUGCUGCUCGUCACAAAAGUGAUGAGUAGCAGAAGGUACAUGAGGAUCACCCAUGUAAAGA [JL eternac mod 13] | 30.9 | 52 |
| AAUAUGUUAGGAUAUGCGAAGUCAGGACACACACUGACGAAGCAGAAGGAACAUGAGGAUCACCCAUGUAAUAA [JR_Exclusion-4 65% 6] | 27.6 | 26.6 |

| Sequence | apparent KD of MS2 coat protein (MS2 coat protein [1]) [nM] | apparent KD of MS2 coat protein (MS2 coat protein [2]) [nM] |
| --- | --- | --- |
| AAUAUGUUAGGAUAUGCUGCUCGUCACAAAAGUGAUGAGUAGCAGAAGGAACAUGAGGAUCACCCAUGUAAAGA [JL eternac mod 12] | 31.1 | 39 |
| AAUGGUGCAGGAUAUACAUGAGGAUCACCCAUGUACAUCAGACAUAUGGUCGAAACAUGUAGAAGGGCACCAAA [Ex 3May 55] | 107 | 336 |
| AAUUAGGUAGGAUAUACAUGAGGAUCACCCAUGUGGGAAAAAAACUACGAAAAAGAAUGUAGAAGGACCUAAAA [Mat - Exclusion 3 - Mayanna mod - D104] | 20.3 | 96.5 |
| ACCUCACAUGAGGAUCACCCAUGUUAGGAUAUGCCCGGCAGGUUCUGACCUGCCUAAAGCAGAAGGAACGUGCG [Beusus] | 17.4 | 57.9 |
| ACCUGACAUGAGGAUCACCCAUGUGAGGAUAUGUACAUCAGGAAAAAAAAACUGAUGUACAGAAGGCACAAGGG [Amethyst 49] | 23.1 | 38.7 |
| ACCUUACAUGAGGAUCACCCAUGUUAGGAUAUCUCGCUCUCGCAGUCACAGCGCAAGCAGAGAAGGGACACGGG [Maretien] | 32.6 | 36.6 |
| ACGAAACAUGAGGAUCACCCAUGUCAGGAUAUGAACGAAAAUAAAUAAAAAUAAAAGUUCAGAAGGGACGACGA [66%, Wbt, 24] | 39.5 | 53 |
| ACGACUAGAGGAUAUACAUGAGGAUCACCCAUGUAACUGUCAGAAAACUGACGGAGAUGUAGAAGGCUAGUCGA [Mat - Exclusion 3 - Neo mod - D80] | 16.7 | 36.1 |
| ACUAACGGAGGAUAUACUAACAAACCUCAAACAUACAUCAAACAUGAGGAUCACCCAUGUAGAAGGCCGAAACU [JR_Exc002_Sub004] | 34.4 | 52.8 |
| AGAAAACAUGAGGAUCACCCAUGUAAGGAUAUGCUAAGGGUGGCUUCGGCCACCCAAUGCAGAAGGUACAAAUA [Excalibur] | 20.5 | 40.7 |
| AGAAAACAUGAGGAUCACCCAUGUGAGGAUAUGCGAAAGAAAGAAAGAAAGAAAGAAAGCAGAAGGCACAAGAA [Ex 1 Tesla 2] | 15.6 | 44.4 |
| AGAAAGUCAGGAUAUGCGAAGGCGUCUGAUAGACGAGGCUAGCAGAAGGGACAUGAGGAUCACCCAUGUGAAAA [Mat - Exclusion 4 - Eli mod - D86] | 48.4 | 133 |
| AGAAUACAUGAGGAUCACCCAUGUGAGGAUAUGUAGAUAAAAAUAAAAUAAAAUAAAUACAGAAGGCGCAAAAG [EX 1 May 20] | 44.5 | 44.9 |
| AGCAAACAUGAGGAUCACCCAUGUGAGGAUAUGAACGAAAAUAAAUAAAAAUAAAAGUUCAGAAGGUACGAGCA [66%, Wbt, 27] | 27.7 | 31.9 |
| AGCACGUCAGGAUAUACGAAAAAAAAGGGUAAACUAAAGGGACAUGAGGAUCACCCAUGUAGAAGGGACAAGCA [Diamond 92] | 90.8 | 245 |
| AGCAGUACAGGAUAUACAUGAGGAUCACCCAUGUGAAAAAAAAGUGGCGUACCACAAAGUAGAAGGGUACUGCA [Mat - Exclusion 3 - JL mod - D32] | 35.4 | 108 |
| AGCUAGACAGGAUAUACGUAAAUGUCGAAAGACGUAUAGGGACAUGAGGAUCACCCAUGUAGAAGGGUCUAGCA [Diamond 100] | 22.7 | 39.6 |
| AGGAAACAUGAGGAUCACCCAUGUAAGGAUAUGAGAAAGAAAAGAAAAGAAAGAAGAAUCAGAAGGUACAAGAA [Semerkhet] | 34.4 | 89.2 |
| AGGAAACAUGAGGAUCACCCAUGUGAGGAUAUCAGAAAGAAAAGAAAAGAAAGAAGAAUGAGAAGGCACAAGAA [Hotepsekhemwy] | 26 | 40.8 |
| AGGAAACAUGAGGAUCACCCAUGUGAGGAUAUUGGAAAGAAAAGAAAAGAAAGAAGAAUAAGAAGGCACAAGAA [Merneith] | 21.8 | 18.2 |
| AGGAUGUCAGGAUAUGUGUAAAGAAUAAAACAAAUAACAACACAGAAGGGACAUGAGGAUCACCCAUGUUAAAA [May 36] | 44.9 | 54 |
| AGUAUGCGAGGAUAUACAUGAGGAUCACCCAUGUGAGAGAUAUGAGUGAGAAAGACAAGUAGAAGGCGCGUACA [JL Lego Mod 26] | 99.8 | 11.4 |
